From PMC8945853, “Androgen Glucuronidation in Mice: When, Where, and How” (Biology, 2022)

B1: Ugt2b1 (Mus musculus) (protein)
chain: KVLVWPTEYSHWINMKIILDELVQRGHDVTVLISSASILIGPSNESSINFEIYSAPLSKDDLEYAFEKWVGNWTYELKKLPFWTSYSKLQKISSEYSDMIESFCKAVVWNKSLMKKLQGSKFDVVLADALVPCGELLSELLKTPLVYSLRFCPGYKCEKYSGGLPLPPSYVPVVLSELSDHMTFAERVKNMLQVLLFDFWFQTFNEKSWNQFYSDVLGRPTTLTEMMGKADIWLVRTFWDLKFPHPFLPNFDFVGGLHCKPAKPLPKEMEEFVQSSGEHGVVVFSLGSMVKNIKEEKANVVASALAQIPQKVLWRFDGKKPDTLGSNTRLYKWIPQNDLLGHPKTKAFIAHGGTNGIYEAIYHGIPIVGIPLFGDQPDNINHIVAKGAAVRVDFDTMSTTDLLTALKTVINDPSYKENAMRLSRIHHDQPMKPLDRAVFWIEYVMRNKGAKHLRPALHDLTWFQYHSLDVIGFLLVCVVAVVFIIAKCCLFCCHKTANMGKKKKE
B2: Ugt2b5 (Mus musculus) (protein)
chain: GKVLVWPMEFSHWMNIKIILDELVQRGHEVTVLRPSAYYVLDPKKSPGLKFETFPTSVSKDNLENFFIKFVDVWTYEMPRDTCLSYSPLLQNMIDEFSDYFLSLCKDVVSNKELMTKLQESKFDVLLSDPVASCGELIAELLQIPFLYSIRFSPGYQIEKSSGRFLLPPSYVPVILSGLGGQMTFIERIKNMICMLYFDFWFQMFNDKKWDSFYSEYLGRPTTLVETMGQAEMWLIRSNWDLEFPHPTLPNVDYVGGLHCKPAKPLPKDMEEFVQSSGDHGVVVFSLGSMVSNMTEEKANAIAWALAQIPQKVLWKFDGKTPATLGHNTRVYKWLPQNDLLGHPKTKAFVTHGGANGVYEAIYHGIPMIGIPLFGEQHDNIAHMVAKGAAVALNIRTMSKSDVLNALEEVIENPFYKKNAIWLSTIHHDQPMKPLDRAVFWIEFVMRHKRAKHLRPLGHNLTWYQYHSLDVIGFLLSCVATTIVLSVKCLLFIYRFFVKKENKMKNE
B3: Ugt2b34 (Mus musculus) (protein)
chain: GKVLVWPMEFSHWLNLKTILDELLKKGHEVMVLRPSASLSYEVDNTSAIEFETYPTSYSLSELEEIFWESLKKYIYELPKQSFWGYFLMLQEMVWVDSKYFESLCKDVVFNKELMTKLQKSRFDVILADPFIPCGDLLAEVLKIPLVYSLRFFPGSTYEKYSGGLPLPPSYVPVVMSELSDRMTFMERVRNVIYMLCFDFWFQTFNEKNWNQLYTEVLGRPTTLSETMAKADIWLIRTYWDLEFPHPVLPNFDFIGGLHCRPAKPLPKEIEDFVQSSGEHGVVVFSLGSMVGSITEERANVIAAGLAQIPQKVLWRFEGKKPETLGSNTRLYKWIPQNDLLGHSKTRAFITHGGTNGIYEAIYHGIPVVGIPLFGDQYDNIVHLKAKGAAVRLDFLTMSSTDLHTALKTVTNDPSYKENAMRLSRIHHDQPVKPLDRAVFWIEFVMRHKGAKHLRVAAHDLSWVQYHSLDVLGFLLACVLTVMFILKKCCLFCCQKLTKAGRKKKGE

How the values were obtained:
Assay in all cases: cells, lysate or membranes
[1] = substrate: C[C@]12CC[C@H]3[C@@H](CCC4=CC(=O)CC[C@@]43C)[C@@H]1CC[C@@H]2O; details: UDP-glucuronic acid co-substrate, 37 °C, testosterone-glucuronide formation
[2] = substrate: C[C@]12CCC(=O)C[C@@H]1CC[C@@H]1[C@@H]2CC[C@]2(C)[C@@H](O)CC[C@@H]12; details: UDP-glucuronic acid co-substrate, 37 °C, DHT-glucuronide formation
[3] = substrate: C[C@]12CC[C@@H](O)C[C@@H]1CC[C@@H]1[C@@H]2CC[C@]2(C)[C@@H](O)CC[C@@H]12; details: UDP-glucuronic acid co-substrate, 37 °C, 17-glucuronide (3α-Diol-17G) formation
[4] = table value, text b37 prints 17.8 ± 2.0
[5] = table value, text b37 prints 22.5 ± 5.1

| Protein | Km [1] [µM] | Vmax [1] [µmol/min/mg] | Km [2] [µM] | Vmax [2] [µmol/min/mg] | Km [3, 4] [µM] | Vmax [3, 4] [µmol/min/mg] | Km [3, 5] [µM] | Vmax [3, 5] [µmol/min/mg] | Km [3] [µM] | Vmax [3] [µmol/min/mg] |
| --- | --- | --- | --- | --- | --- | --- | --- | --- | --- | --- |
| B1 | 20.3 ± 0.7 | 5.12e-05 | 17.8 ± 0.7 | 0.000238 | 11.7 ± 2.0 | 3.48e-05 | – | – | – | – |
| B2 | 65.5 ± 8.6 | 0.000186 | 35.6 ± 11.5 | 5.05e-05 | – | – | 22.7 ± 5.1 | 0.000115 | – | – |
| B3 | – | – | 54.9 ± 2.9 | 4.31e-05 | – | – | – | – | 16.3 ± 4.8 | 8.5e-06 |
